Biological target: hCD40-P227A, gain-of-function polymorphism of the human CD40 receptor (human, UniProt P25942 21-277, P227A)
Assay: co-IP

hCD40-P227A, gain-of-function polymorphism of the human CD40 receptor, sequence (P25942 21-277 P227A): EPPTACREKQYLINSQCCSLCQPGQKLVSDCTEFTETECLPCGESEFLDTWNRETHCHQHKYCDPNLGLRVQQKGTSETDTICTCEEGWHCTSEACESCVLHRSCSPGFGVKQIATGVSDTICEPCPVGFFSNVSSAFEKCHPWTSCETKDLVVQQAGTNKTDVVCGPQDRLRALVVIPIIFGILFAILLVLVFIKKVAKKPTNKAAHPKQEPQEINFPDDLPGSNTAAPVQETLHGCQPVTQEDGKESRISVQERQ

Binder	fold bound relative to Wt-hCD40
TNF receptor associated factor 5 (TRAF5) (natural protein, mouse (endogenous in CH12.LX), UniProt P70191 1-558, looked up) MAHSEEQAAVPCAFIRQNSGNSISLDFEPDTEYQFVEQLEERYKCAFCHSVLHNPHQTGCGHRFCQQCIRSLRELNSVPICPVDKEVIKPQEVFKDNCCKREVLNLHVYCKNAPGCNARIILGRFQDHLQHCSFQAVPCPNESCREAMLRKDVKEHLSAYCRFREEKCLYCKRDIVVTNLQDHEENSCPAYPVSCPNRCVQTIPRARVNEHLTVCPEAEQDCPFKHYGCTVKGKRGNLLEHERAALQDHMLLVLEKNYQLEQRISDLYQSLEQKESKIQQLAETVKKFEKELKQFTQMFGRNGTFLSNVQALTSHTDKSAWLEAQVRQLLQIVNQQPSRLDLRSLVDAVDSVKQRITQLEASDQRLVLLEGETSKHDAHINIHKAQLNKNEERFKQLEGACYSGKLIWKVTDYRVKKREAVEGHTVSVFSQPFYTSRCGYRLCARAYLNGDGSGKGTHLSLYFVVMRGEFDSLLQWPFRQRVTLMLLDQSGKKNHIVETFKADPNSSSFKRPDGEMNIASGCPRFVSHSTLENSKNTYIKDDTLFLKVAVDLTDLEDL	2 fold
TNF receptor associated factor 3 (TRAF3) (natural protein, mouse (endogenous in CH12.LX), UniProt Q60803 1-567, looked up) MESSKKMDAAGTLQPNPPLKLQPDRGAGSVLVPEQGGYKEKFVKTVEDKYKCEKCRLVLCNPKQTECGHRFCESCMAALLSSSSPKCTACQESIIKDKVFKDNCCKREILALQVYCRNEGRGCAEQLTLGHLLVHLKNECQFEELPCLRADCKEKVLRKDLRDHVEKACKYREATCSHCKSQVPMIKLQKHEDTDCPCVVVSCPHKCSVQTLLRSELSAHLSECVNAPSTCSFKRYGCVFQGTNQQIKAHEASSAVQHVNLLKEWSNSLEKKVSLLQNESVEKNKSIQSLHNQICSFEIEIERQKEMLRNNESKILHLQRVIDSQAEKLKELDKEIRPFRQNWEEADSMKSSVESLQNRVTELESVDKSAGQAARNTGLLESQLSRHDQMLSVHDIRLADMDLRFQVLETASYNGVLIWKIRDYKRRKQEAVMGKTLSLYSQPFYTGYFGYKMCARVYLNGDGMGKGTHLSLFFVIMRGEYDALLPWPFKQKVTLMLMDQGSSRRHLGDAFKPDPNSSSFKKPTGEMNIASGCPVFVAQTVLENGTYIKDDTIFIKVIVDTSDLPDP	2 fold

— paper PMC3040440 (Journal of immunology (Baltimore, Md. : 1950), 2010)
